Reference: the supplement of paper PMC10567573

B1: PPP2R2B (parent)
chain: PSNRSFFSEIISSISDVKFSHSGR
B2: FAM189A2 (parent)
chain: NLAGFILGCQGAQFVSSVPRCDLV

Variants of: B1
Assay: protein stability index of a GFP-peptide fusion (GPS, HEK-293T) (PSI 1-6); higher = more stable
Details: c terminus: a fixed tail appended
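Further: lentivirally expressed fusions sorted by FACS into six bins by GFP to DsRed ratio, PSI derived from sequencing read proportions per bin multiplied by bin number.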

Variant	protein stability index
PSYRSFFSEIISSISDVKFSHSGR	2.55
PSRRSFFSEIISSISDVKFSHSGR	2.35
PSCRSFFSEIISSISDVKFSHSGR	2.19
PSSRSFFSEIISSISDVKFSHSGR	2.57
PSNRSIFSEIISSISDVKFSHSGR	2.81
PSNRSLFSEIISSISDVKFSHSGR	2.39
PSNRSQFSEIISSISDVKFSHSGR	2.89
PSNRSTFSEIISSISDVKFSHSGR	3.4
ISNRSFFSEIISSISDVKFSHSGR	2.02
YSNRSFFSEIISSISDVKFSHSGR	2.95
SSNRSFFSEIISSISDVKFSHSGR	2.21
ASNRSFFSEIISSISDVKFSHSGR	2.19
LSNRSFFSEIISSISDVKFSHSGR	2.19
MSNRSFFSEIISSISDVKFSHSGR	2.24
WSNRSFFSEIISSISDVKFSHSGR	1.83
VSNRSFFSEIISSISDVKFSHSGR	1.72
PSNRSFLSEIISSISDVKFSHSGR	2.25
PSNRSFSSEIISSISDVKFSHSGR	4.24
PSNRSFWSEIISSISDVKFSHSGR	2.41
PSNRSFCSEIISSISDVKFSHSGR	2.83
PSNRSFESEIISSISDVKFSHSGR	3.69
PSNRSFRSEIISSISDVKFSHSGR	3.32
PSNRSFGSEIISSISDVKFSHSGR	3.42

Variant	protein stability index
PSNRSFFSEIQSSISDVKFSHSGR	3.04
PSNRSFFSEIVSSISDVKFSHSGR	3.26
PSNRSFFSEITSSISDVKFSHSGR	3.19
PSNRSFFSEIWSSISDVKFSHSGR	2.59
PSNRSFFSEILSSISDVKFSHSGR	2.3
PSNRSFFSEIRSSISDVKFSHSGR	2.97
PKNRSFFSEIISSISDVKFSHSGR	1.92
PQNRSFFSEIISSISDVKFSHSGR	2.45
PINRSFFSEIISSISDVKFSHSGR	2.02
PFNRSFFSEIISSISDVKFSHSGR	1.99
PVNRSFFSEIISSISDVKFSHSGR	2.29
PLNRSFFSEIISSISDVKFSHSGR	1.95
PWNRSFFSEIISSISDVKFSHSGR	2.18
PSNRSFFSEIISSISDVKFSHSGV	1.59
PSNRSFFSEIISSISDVKFSHSGW	1.98
PSNRSFFSEIISSISDVKFSHSGK	2.65
PSNRSFFSEIISSISDVKFSHSGH	1.94
PSNRSFFSEIISSISDVKFSHSGM	1.97
PSNRSFFSEIISSISDVKFSHSGN	2.81
PSNRSFFSEIISSISDVKFSHSGE	2.94
PSNRSFFSEIISSISDVKFSHSGS	3.12
PSNRSFFSEIISSISDVKFSHSGG	2.21
PSNRSFFSEIISSISDVKFSHSGI	1.61

Variant	protein stability index
PSNRSFFSEIISSKSDVKFSHSGR	3.17
PSNRSFFSEIISSSSDVKFSHSGR	3.19
PSNRSFFSEIISSLSDVKFSHSGR	2.54
PSNRSFFSEIISSWSDVKFSHSGR	2.4
PSNRSFFSEIISSGSDVKFSHSGR	3.26
PSNRSFFSEIISSCSDVKFSHSGR	2.46
PSNRSFFSEIISSRSDVKFSHSGR	3.05
PSNDSFFSEIISSISDVKFSHSGR	3.49
PSNLSFFSEIISSISDVKFSHSGR	2.41
PSNNSFFSEIISSISDVKFSHSGR	2.2
PSNHSFFSEIISSISDVKFSHSGR	2.1
PSNYSFFSEIISSISDVKFSHSGR	1.86
PSNISFFSEIISSISDVKFSHSGR	2.79
PSNTSFFSEIISSISDVKFSHSGR	2.48
PSNRSFFSEIISSISEVKFSHSGR	2.28
PSNRSFFSEIISSISYVKFSHSGR	1.61
PSNRSFFSEIISSISKVKFSHSGR	2.13
PSNRSFFSEIISSISQVKFSHSGR	2.42
PSNRSFFSEIISSISFVKFSHSGR	1.66
PSNRSFFSEIISSISVVKFSHSGR	2.17
PSNRSFFSEIISSISDSKFSHSGR	2.5
PSNRSFFSEIISSISDYKFSHSGR	2.29
PSNRSFFSEIISSISDNKFSHSGR	2.9

Variant	protein stability index
PSNRSFFSEIISSISDDKFSHSGR	3.18
PSNRSFFSEIISSISDRKFSHSGR	2.31
PSNRSFFSEIISSISDIKFSHSGR	2.53
PSNRSFFSEIISSISDPKFSHSGR	2.63
PSNRFFFSEIISSISDVKFSHSGR	2.54
PSNRIFFSEIISSISDVKFSHSGR	1.91
PSNRQFFSEIISSISDVKFSHSGR	2.42
PSNRGFFSEIISSISDVKFSHSGR	2.59
PSNRTFFSEIISSISDVKFSHSGR	2.31
PSNRKFFSEIISSISDVKFSHSGR	2.17
PSNRSFFSEIIRSISDVKFSHSGR	2.31
PSNRSFFSEIIESISDVKFSHSGR	2.57
PSNRSFFSEIITSISDVKFSHSGR	2.28
PSNRSFFSEIIASISDVKFSHSGR	2.23
PSNRSFFSEIIHSISDVKFSHSGR	2.32
PSNRSFFSEIIFSISDVKFSHSGR	1.72
PSNRSFFSEIIGSISDVKFSHSGR	2.54
PSNRSFFSEIIDSISDVKFSHSGR	2.54
PSNRSFFSEIIMSISDVKFSHSGR	2.04
PSNRSFFSEIIISISDVKFSHSGR	3.11
PSNRSFFSEIIPSISDVKFSHSGR	2.65
PSNRSFFSEIISSISDVKFSHEGR	2.37
PSNRSFFSEIISSISDVKFSHCGR	1.89

Variant	protein stability index
PSNRSFFSEIISSISDVKFSHIGR	2.11
PSNRSFFSEIISSISDVKFSHGGR	2.57
PSNRSFFSEIISSISDVKFSHWGR	1.9
PSNRSFFSEIISSISDVKFSHNGR	2.58
PSNRSFFSEIISSISDVKFSHLGR	2.48
PSNRSFFSEIISSISDVKFSHAGR	2.4
PSNRSFFSEIISSISDVKFSHVGR	2.06
PSNRSFFSEIISSISDVKFSHKGR	2.64
PSNRSFFSEIISSISDVKFSHPGR	2.38
PSNRSFFSEIISSISDVKFSHFGR	2.19
PSNRSFFSTIISSISDVKFSHSGR	2.17
PSNRSFFSDIISSISDVKFSHSGR	2.44
PSNRSFFSPIISSISDVKFSHSGR	2.45
PSNRSFFSQIISSISDVKFSHSGR	2.31
PSNRSFFSNIISSISDVKFSHSGR	2.36
PSNRSFFSWIISSISDVKFSHSGR	1.91
PSNRSFFSAIISSISDVKFSHSGR	2.12
PSNRSFFSLIISSISDVKFSHSGR	2.58
PSNRSFFSFIISSISDVKFSHSGR	1.63
PSNRSFFSGIISSISDVKFSHSGR	2.64
PSNRSFFSEIISMISDVKFSHSGR	1.76
PSNRSFFSEIISPISDVKFSHSGR	2.99
PSNRSFFSEIISRISDVKFSHSGR	2.63

Variant	protein stability index
PSNRSFFSEIISFISDVKFSHSGR	1.73
PSNRSFFSEIISAISDVKFSHSGR	1.87
PSNRSFFSEIISGISDVKFSHSGR	2.37
PSNRSFFSEIISTISDVKFSHSGR	2.64
PSNRSFFSEIISSIGDVKFSHSGR	2.65
PSNRSFFSEIISSIQDVKFSHSGR	2.31
PSNRSFFSEIISSICDVKFSHSGR	1.81
PSNRSFFSEIISSIPDVKFSHSGR	2.85
PSNRSFFSEIISSITDVKFSHSGR	2.05
PSNRSFFSEIISSIIDVKFSHSGR	2.26
PSNRSFFSEIISSISDVKFSHSSR	2.33
PSNRSFFSEIISSISDVKFSHSDR	2.72
PSNRSFFSEIISSISDVKFSHSAR	2.31
PSNRSFFSEIISSISDVKFSHSRR	2.54
PSNRSFFSEIISSISDVKFSHSER	2.7
PSNRSFFSEIISSISDVKFSHSHR	2.27
PSNRSFFSEIISSISDVKFSHSCR	2.36
PSNRSFFSEIISSISDVKFSHSKR	2.49
PSNRSFFSEIISSISDVKFSHSLR	2.08
PSNRSFFSEIISSISDVKFSHSFR	2.09
PSNRSFFSEIISSISDVKFSHSQR	2.24
PSNRSFFSEIISSISDVKFSASGR	2.7
PSNRSFFSEIISSISDVKFSESGR	2.87

Variant	protein stability index
PSNRSFFSEIISSISDVKFSDSGR	2.54
PSNRSFFSEIISSISDVKFSGSGR	2.39
PSNRSFFSEIISSISDVKFSQSGR	2.26
PSNRSFFSEIISSISDVKFSPSGR	2.67
PSNRSFFSEIISSISDVKFSMSGR	2.41
PSNRSFFSEIISSISDVKFSISGR	2.13
PSNRSFFSEIISSISDVKFSVSGR	2.04
PSNRSFFSEIISSISDVKFSRSGR	3.27
PSNRSFFSEDISSISDVKFSHSGR	3.13
PSNRSFFSEAISSISDVKFSHSGR	3.33
PSNRSFFSENISSISDVKFSHSGR	3.09
PSNRSFFSEYISSISDVKFSHSGR	3.01
PSNRSFFSEHISSISDVKFSHSGR	2.98
PSNRSFFSESISSISDVKFSHSGR	3.09
PSNRSFFSETISSISDVKFSHSGR	3.37
PSNRSFFSEIISSISDVQFSHSGR	2.47
PSNRSFFSEIISSISDVDFSHSGR	2.59
PSNRSFFSEIISSISDVHFSHSGR	2.04
PSNRSFFSEIISSISDVGFSHSGR	2.66
PSNRSFFSEIISSISDVFFSHSGR	2.17
PSNRSFFSEIISSISDVAFSHSGR	2.15
PSNRSFFSEIISSISDVCFSHSGR	1.94
PSNRSFFSEIISSISDVYFSHSGR	1.97

Variant	protein stability index
PSNRSFFSEIISSISDVNFSHSGR	2.36
PSNRSFFSEIISSISDVPFSHSGR	2.23
PSNRSFFSEIISSISDVKRSHSGR	2.99
PSNRSFFSEIISSISDVKTSHSGR	3.07
PSNRSFFSEIISSISDVKASHSGR	3.07
PSNRSFFSEIISSISDVKESHSGR	3.58
PSNRSFFSEIISSISDVKHSHSGR	3.02
PSNRSFFIEIISSISDVKFSHSGR	2.84
PSNRSFFFEIISSISDVKFSHSGR	2.11
PSNRSFFYEIISSISDVKFSHSGR	1.91
PSNRSFFMEIISSISDVKFSHSGR	2.43
PSNRSFFHEIISSISDVKFSHSGR	2.31
PSNRSFFEEIISSISDVKFSHSGR	2.57
PSNRSFFREIISSISDVKFSHSGR	2.33
PSNRSFFDEIISSISDVKFSHSGR	2.32
PSNRSFFSEIISSISDVKFPHSGR	2.48
PSNRSFFSEIISSISDVKFWHSGR	2.38
PSNRSFFSEIISSISDVKFVHSGR	2.33
PSNRSFFSEIISSISDVKFDHSGR	2.88
PSNRSFFSEIISSISDVKFIHSGR	2.22

Variants of: B2
Assay: as above
Details: c terminus: a fixed tail appended

Variant	protein stability index
GLAGFILGCQGAQFVSSVPRCDLV	1.51
CLAGFILGCQGAQFVSSVPRCDLV	2.92
NLAGFILGCQGAQFVSSVPPCDLV	2.2
NLAGFILGCQGAQFVTSVPRCDLV	2.23
NLAGFILGCQGAQFVYSVPRCDLV	4.96
NLAGFILGCQGAQFVSSVPRTDLV	2.56
NFAGFILGCQGAQFVSSVPRCDLV	2.65
